In PMC10761944, “Modular assembly of an artificially concise biocatalytic cascade for the manufacture of phenethylisoquinoline alkaloids” (Nature Communications, 2024):

Tests used:
TfNCS = target: T1, TfNCS (Thalictrum flavum, UniProt C3SBV6); test: product by HPLC, coupled to TpCAR; type: biochemical; settings: 1a formed in situ from 1 by TpCAR; co-substrate dopamine; HEPES pH 7.5, 30 °C
T1 construct: codon-optimised synthetic gene, E. coli BL21(DE3), Ni-NTA purified

RnCOMT = target: T2, RnCOMT (Rattus norvegicus, UniProt P22734); test: conversion by HPLC; type: biochemical; settings: 4 mM SAM, 10 mM MgCl2, HEPES pH 7.5, 30 °C, 2 h
T2 construct: gene Comt; codon-optimised synthetic gene, E. coli BL21(DE3), Ni-NTA purified
T2 sequence (P22734 1-264): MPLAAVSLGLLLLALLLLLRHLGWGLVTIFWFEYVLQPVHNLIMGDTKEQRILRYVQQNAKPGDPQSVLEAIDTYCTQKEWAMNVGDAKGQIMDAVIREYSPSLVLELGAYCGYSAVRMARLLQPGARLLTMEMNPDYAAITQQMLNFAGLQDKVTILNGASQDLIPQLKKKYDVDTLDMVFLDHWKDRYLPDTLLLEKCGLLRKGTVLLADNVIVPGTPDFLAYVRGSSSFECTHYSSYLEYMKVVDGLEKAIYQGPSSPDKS

CNMT = target: T3, CNMT (Coptis japonica, UniProt Q948P7); test: product titer by HPLC, coupled to RnCOMT; type: biochemical; settings: SAM; (S)-1c formed in situ from 2 mM (S)-1b; HEPES pH 7.5, 30 °C, 4 h
T3 construct: codon-optimised synthetic gene, E. coli BL21(DE3), Ni-NTA purified

[1] = tested on: COc1cc(CC[C@@H]2NCCc3cc(O)c(O)cc32)cc(O)c1OC; test: initial rates by HPLC, Michaelis-Menten fit; type: biochemical, Gloriosa superba; settings: SAM as methyl donor, 200 mM potassium phosphate pH 7.5, 30 °C

Compound	Km [1] [µM]	kcat [1] [s⁻¹]	also measured
COc1cc(CCC=O)cc(OC)c1OC [1a]			product by HPLC, coupled to TpCAR (TfNCS): (S)−1b was efficiently synthesized without the accumulation of intermediate 1a
COc1cc(CC[C@@H]2NCCc3cc(O)c(O)cc32)cc(OC)c1OC [(S)-1b]			conversion by HPLC (RnCOMT): the enzymatic activity of RnCOMT towards (S)−1b was much better than that of GsOMT1
COc1cc2c(cc1O)[C@H](CCc1cc(OC)c(OC)c(OC)c1)NCC2 [(S)-1c]			product titer by HPLC, coupled to RnCOMT (CNMT): CNMT showed a very weak catalytic activity towards (S)−1c
GsOMT1 (Gloriosa superba)	630 ± 50	4.56 ± 0.24	
GsOMT1 (Gloriosa superba; V125Q)	330 ± 20	8.65 ± 0.26	
